# Laboratory results taken from paper PMC9482650, “Quantitative fragmentomics allow affinity mapping of interactomes” (Nature Communications, 2022).
# B1: IGF1R, P08069 (peptide)
# chain: ALPLPQSSTC
# B2: ADGRA1, Q86SQ6 (peptide)
# chain: TGPWKNETTV
# B3: PKN2, Q16513 (peptide)
# chain: RDFDYIADWC
# B4: GOLT1A, Q6ZVE7 (peptide)
# chain: RRLQGTSSMV
# Molecular target: SCRIB_3, Q14160
# Assay: holdup assay
# Parameters: key: below the threshold = too weak to quantify, mostly under pKd 3.1 to 4
# Settings: plain residues with an end cap or a label only (N-terminal biotin on a linker: ado-ado)
# SCRIB_3, Q14160, sequence (Q14160 999-1103): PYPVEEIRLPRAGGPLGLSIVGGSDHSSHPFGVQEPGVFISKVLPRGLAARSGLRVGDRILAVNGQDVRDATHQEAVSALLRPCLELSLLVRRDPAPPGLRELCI
row,Binder,pKd
1,B1,below the threshold
2,B2,4.69
3,B3,3.49
4,B4,below the threshold

# Molecular target: Inadl_5, Q8NI35
# Sequence (Q8NI35 673-780): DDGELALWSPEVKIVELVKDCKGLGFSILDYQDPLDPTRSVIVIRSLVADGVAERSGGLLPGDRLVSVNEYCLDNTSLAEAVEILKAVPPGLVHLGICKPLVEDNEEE
# Assay: holdup assay
# Parameters: key: below the threshold = too weak to quantify, mostly under pKd 3.1 to 4
# Settings: plain residues with an end cap or a label only (N-terminal biotin on a linker: ado-ado)
row,Binder,pKd
1,B1,below the threshold
2,B2,below the threshold
3,B3,below the threshold
4,B4,below the threshold

# Molecular target: NOS1, P29475
# Sequence (P29475 9-101): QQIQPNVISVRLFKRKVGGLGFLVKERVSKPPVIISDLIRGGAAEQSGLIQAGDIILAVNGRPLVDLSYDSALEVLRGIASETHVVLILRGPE
# Assay: holdup assay
# Parameters: key: below the threshold = too weak to quantify, mostly under pKd 3.1 to 4
# Settings: plain residues with an end cap or a label only (N-terminal biotin on a linker: ado-ado)
row,Binder,pKd
1,B1,below the threshold
2,B2,below the threshold
3,B3,4.12
4,B4,3.77

# Molecular target: T1, PDZD2_2, O15018
# T1 sequence (O15018 329-429, limits assumed, looked up): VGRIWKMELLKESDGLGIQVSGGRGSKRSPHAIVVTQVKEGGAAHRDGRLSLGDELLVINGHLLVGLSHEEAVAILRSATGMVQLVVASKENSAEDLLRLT
# Assay: holdup assay
# Parameters: key: below the threshold = too weak to quantify, mostly under pKd 3.1 to 4
# Settings: plain residues with an end cap or a label only (N-terminal biotin on a linker: ado-ado)
row,Binder,pKd
1,B1,4.46
2,B2,4.02
3,B3,5.54
4,B4,5.16

# Molecular target: FRMPD2_3, Q68DX3
# Sequence (Q68DX3 1073-1166): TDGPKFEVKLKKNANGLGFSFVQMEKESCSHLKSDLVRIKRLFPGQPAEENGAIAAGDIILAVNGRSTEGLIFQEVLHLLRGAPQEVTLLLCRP
# Assay: holdup assay
# Parameters: key: below the threshold = too weak to quantify, mostly under pKd 3.1 to 4
# Settings: plain residues with an end cap or a label only (N-terminal biotin on a linker: ado-ado)
row,Binder,pKd
1,B1,3.54
2,B2,below the threshold
3,B3,below the threshold
4,B4,below the threshold

# Molecular target: Inadl_1, Q8NI35
# Sequence (Q8NI35 113-229): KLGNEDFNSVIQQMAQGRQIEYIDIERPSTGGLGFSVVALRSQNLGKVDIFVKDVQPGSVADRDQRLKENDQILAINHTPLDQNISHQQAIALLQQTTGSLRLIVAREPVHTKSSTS
# Assay: holdup assay
# Parameters: key: below the threshold = too weak to quantify, mostly under pKd 3.1 to 4
# Settings: plain residues with an end cap or a label only (N-terminal biotin on a linker: ado-ado)
row,Binder,pKd
1,B1,below the threshold
2,B2,below the threshold
3,B3,below the threshold
4,B4,below the threshold

# Molecular target: Inadl_6, Q8NI35
# Sequence (Q8NI35 1058-1167): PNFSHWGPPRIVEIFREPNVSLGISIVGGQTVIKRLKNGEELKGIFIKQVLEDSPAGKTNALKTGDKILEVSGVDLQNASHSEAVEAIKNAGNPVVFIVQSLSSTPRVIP
# Assay: holdup assay
# Parameters: key: below the threshold = too weak to quantify, mostly under pKd 3.1 to 4
# Settings: plain residues with an end cap or a label only (N-terminal biotin on a linker: ado-ado)
row,Binder,pKd
1,B1,below the threshold
2,B2,below the threshold
3,B3,3.56
4,B4,below the threshold

# Molecular target: T2, MPP7, Q5T2T1
# T2 sequence (Q5T2T1 134-230, limits assumed, looked up): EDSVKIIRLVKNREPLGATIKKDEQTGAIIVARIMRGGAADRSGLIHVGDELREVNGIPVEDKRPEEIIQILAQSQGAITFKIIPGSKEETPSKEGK
# Assay: holdup assay
# Parameters: key: below the threshold = too weak to quantify, mostly under pKd 3.1 to 4
# Settings: plain residues with an end cap or a label only (N-terminal biotin on a linker: ado-ado)
row,Binder,pKd
1,B1,below the threshold
2,B2,below the threshold
3,B3,below the threshold
4,B4,below the threshold

# Molecular target: T3, DLG3_3, Q92796
# T3 sequence (Q92796 374-475, limits assumed, looked up): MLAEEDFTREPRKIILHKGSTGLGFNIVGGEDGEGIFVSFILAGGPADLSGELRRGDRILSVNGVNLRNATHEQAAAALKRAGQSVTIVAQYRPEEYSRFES
# Assay: holdup assay
# Parameters: key: below the threshold = too weak to quantify, mostly under pKd 3.1 to 4
# Settings: plain residues with an end cap or a label only (N-terminal biotin on a linker: ado-ado)
row,Binder,pKd
1,B1,below the threshold
2,B2,4.48
3,B3,below the threshold
4,B4,below the threshold

# Molecular target: T4, TX1BP3, O14907
# T4 sequence (O14907 10-122, limits assumed, looked up): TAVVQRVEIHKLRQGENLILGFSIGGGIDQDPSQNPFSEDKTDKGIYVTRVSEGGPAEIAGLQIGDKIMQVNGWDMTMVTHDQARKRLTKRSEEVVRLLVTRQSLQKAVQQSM
# Assay: holdup assay
# Parameters: key: below the threshold = too weak to quantify, mostly under pKd 3.1 to 4
# Settings: plain residues with an end cap or a label only (N-terminal biotin on a linker: ado-ado)
row,Binder,pKd
1,B1,below the threshold
2,B2,4.47
3,B3,below the threshold
4,B4,3.9

# Molecular target: GRIP2_4, Q9C0E4
# Sequence (Q9C0E4 446-548): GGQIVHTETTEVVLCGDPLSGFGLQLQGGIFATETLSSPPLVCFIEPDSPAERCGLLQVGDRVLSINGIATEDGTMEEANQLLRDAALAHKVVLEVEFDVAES
# Assay: holdup assay
# Parameters: key: below the threshold = too weak to quantify, mostly under pKd 3.1 to 4
# Settings: plain residues with an end cap or a label only (N-terminal biotin on a linker: ado-ado)
row,Binder,pKd
1,B1,below the threshold
2,B2,below the threshold
3,B3,below the threshold
4,B4,below the threshold

# Molecular target: T5, PTPN13_1, Q12923
# T5 sequence (Q12923 1088-1188, limits assumed, looked up): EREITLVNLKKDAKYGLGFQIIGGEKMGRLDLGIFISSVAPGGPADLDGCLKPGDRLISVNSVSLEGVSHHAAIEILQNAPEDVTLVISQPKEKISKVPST
# Assay: holdup assay
# Parameters: key: below the threshold = too weak to quantify, mostly under pKd 3.1 to 4
# Settings: plain residues with an end cap or a label only (N-terminal biotin on a linker: ado-ado)
row,Binder,pKd
1,B1,below the threshold
2,B2,below the threshold
3,B3,below the threshold
4,B4,below the threshold

# Molecular target: T6, DLG3_2, Q92796
# T6 sequence (Q92796 221-321, limits assumed, looked up): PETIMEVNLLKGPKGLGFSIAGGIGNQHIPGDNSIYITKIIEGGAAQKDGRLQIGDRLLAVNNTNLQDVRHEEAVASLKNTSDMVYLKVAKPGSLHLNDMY
# Assay: holdup assay
# Parameters: key: below the threshold = too weak to quantify, mostly under pKd 3.1 to 4
# Settings: plain residues with an end cap or a label only (N-terminal biotin on a linker: ado-ado)
row,Binder,pKd
1,B1,4.22
2,B2,5.01
3,B3,4.16
4,B4,4.67

# Molecular target: MAGI2_5, Q86UL8
# Sequence (Q86UL8 915-1017): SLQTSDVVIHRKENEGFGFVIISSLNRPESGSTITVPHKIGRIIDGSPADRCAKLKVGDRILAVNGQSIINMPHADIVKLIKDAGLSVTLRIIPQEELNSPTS
# Assay: holdup assay
# Parameters: key: below the threshold = too weak to quantify, mostly under pKd 3.1 to 4
# Settings: plain residues with an end cap or a label only (N-terminal biotin on a linker: ado-ado)
row,Binder,pKd
1,B1,below the threshold
2,B2,4.02
3,B3,3.95
4,B4,4

# Molecular target: T7, DFNB31_2, Q9P202
# T7 sequence (Q9P202 274-371, limits assumed, looked up): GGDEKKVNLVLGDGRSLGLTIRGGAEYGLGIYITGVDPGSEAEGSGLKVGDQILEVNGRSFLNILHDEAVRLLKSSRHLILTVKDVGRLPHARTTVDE
# Assay: holdup assay
# Parameters: key: below the threshold = too weak to quantify, mostly under pKd 3.1 to 4
# Settings: plain residues with an end cap or a label only (N-terminal biotin on a linker: ado-ado)
row,Binder,pKd
1,B1,below the threshold
2,B2,below the threshold
3,B3,below the threshold
4,B4,below the threshold

# Molecular target: T8, LIN7C, Q9NUP9
# T8 sequence (Q9NUP9 88-185, limits assumed, looked up): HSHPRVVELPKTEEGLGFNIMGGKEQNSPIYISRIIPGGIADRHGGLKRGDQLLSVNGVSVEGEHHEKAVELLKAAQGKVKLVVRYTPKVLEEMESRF
# Assay: holdup assay
# Parameters: key: below the threshold = too weak to quantify, mostly under pKd 3.1 to 4
# Settings: plain residues with an end cap or a label only (N-terminal biotin on a linker: ado-ado)
row,Binder,pKd
1,B1,below the threshold
2,B2,4.27
3,B3,below the threshold
4,B4,below the threshold

# Molecular target: MAST1, Q9Y2H9
# Sequence (Q9Y2H9 962-1065): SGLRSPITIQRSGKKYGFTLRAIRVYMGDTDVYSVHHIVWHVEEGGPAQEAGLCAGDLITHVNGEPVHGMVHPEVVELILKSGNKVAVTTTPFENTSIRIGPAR
# Assay: holdup assay
# Parameters: key: below the threshold = too weak to quantify, mostly under pKd 3.1 to 4
# Settings: plain residues with an end cap or a label only (N-terminal biotin on a linker: ado-ado)
row,Binder,pKd
1,B1,below the threshold
2,B2,4.71
3,B3,3.8
4,B4,4.35

# Molecular target: T9, RADIL, Q96JH8
# T9 sequence (Q96JH8 971-1071, limits assumed, looked up): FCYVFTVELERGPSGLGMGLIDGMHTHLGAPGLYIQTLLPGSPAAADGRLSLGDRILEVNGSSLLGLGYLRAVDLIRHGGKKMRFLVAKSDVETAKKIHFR
# Assay: holdup assay
# Parameters: key: below the threshold = too weak to quantify, mostly under pKd 3.1 to 4
# Settings: plain residues with an end cap or a label only (N-terminal biotin on a linker: ado-ado)
row,Binder,pKd
1,B1,below the threshold
2,B2,4.04
3,B3,4.2
4,B4,4.28

# Molecular target: T10, DFNB31_3, Q9P202
# T10 sequence (Q9P202 811-907, limits assumed, looked up): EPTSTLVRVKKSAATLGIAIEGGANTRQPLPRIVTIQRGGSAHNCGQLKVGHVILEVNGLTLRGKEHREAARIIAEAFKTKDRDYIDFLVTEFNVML
# Assay: holdup assay
# Parameters: key: below the threshold = too weak to quantify, mostly under pKd 3.1 to 4
# Settings: plain residues with an end cap or a label only (N-terminal biotin on a linker: ado-ado)
row,Binder,pKd
1,B1,3.59
2,B2,below the threshold
3,B3,below the threshold
4,B4,3.66

# Molecular target: T11, HTRA4, P83105
# T11 sequence (P83105 378-476, limits assumed, looked up): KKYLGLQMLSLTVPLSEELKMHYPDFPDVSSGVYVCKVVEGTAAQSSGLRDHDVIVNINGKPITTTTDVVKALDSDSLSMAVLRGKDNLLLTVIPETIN
# Assay: holdup assay
# Parameters: key: below the threshold = too weak to quantify, mostly under pKd 3.1 to 4
# Settings: plain residues with an end cap or a label only (N-terminal biotin on a linker: ado-ado)
row,Binder,pKd
1,B1,below the threshold
2,B2,3.92
3,B3,4.9
4,B4,below the threshold

# Molecular target: Inadl_4, Q8NI35
# Sequence (Q8NI35 547-651): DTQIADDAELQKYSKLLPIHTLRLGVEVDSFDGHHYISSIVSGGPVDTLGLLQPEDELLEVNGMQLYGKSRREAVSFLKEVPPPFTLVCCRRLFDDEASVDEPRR
# Assay: holdup assay
# Parameters: key: below the threshold = too weak to quantify, mostly under pKd 3.1 to 4
# Settings: plain residues with an end cap or a label only (N-terminal biotin on a linker: ado-ado)
row,Binder,pKd
1,B1,below the threshold
2,B2,below the threshold
3,B3,below the threshold
4,B4,below the threshold

# Molecular target: LAP2, Q96RT1
# Sequence (Q96RT1 other isoform, or with tags, fused parts or gaps): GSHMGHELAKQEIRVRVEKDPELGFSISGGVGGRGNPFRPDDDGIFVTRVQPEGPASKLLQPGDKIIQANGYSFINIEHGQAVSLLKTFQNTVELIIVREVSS
# Assay: holdup assay
# Parameters: key: below the threshold = too weak to quantify, mostly under pKd 3.1 to 4
# Settings: plain residues with an end cap or a label only (N-terminal biotin on a linker: ado-ado)
row,Binder,pKd
1,B1,below the threshold
2,B2,3.84
3,B3,4.01
4,B4,below the threshold

# Molecular target: MAGI2_2, Q86UL8
# Sequence (Q86UL8 410-522): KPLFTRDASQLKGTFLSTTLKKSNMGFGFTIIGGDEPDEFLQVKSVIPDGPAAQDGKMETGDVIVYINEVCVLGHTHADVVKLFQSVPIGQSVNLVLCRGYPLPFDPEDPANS
# Assay: holdup assay
# Parameters: key: below the threshold = too weak to quantify, mostly under pKd 3.1 to 4
# Settings: plain residues with an end cap or a label only (N-terminal biotin on a linker: ado-ado)
row,Binder,pKd
1,B1,below the threshold
2,B2,5.17
3,B3,below the threshold
4,B4,4.69

# Molecular target: HTRA2, O43464
# Sequence (O43464 355-458): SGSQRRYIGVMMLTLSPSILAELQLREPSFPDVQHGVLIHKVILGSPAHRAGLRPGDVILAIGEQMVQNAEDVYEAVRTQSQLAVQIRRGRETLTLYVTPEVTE
# Assay: holdup assay
# Parameters: key: below the threshold = too weak to quantify, mostly under pKd 3.1 to 4
# Settings: plain residues with an end cap or a label only (N-terminal biotin on a linker: ado-ado)
row,Binder,pKd
1,B1,below the threshold
2,B2,below the threshold
3,B3,5.11
4,B4,below the threshold

# Molecular target: IL16_3, Q14005
# Sequence (Q14005 1107-1207): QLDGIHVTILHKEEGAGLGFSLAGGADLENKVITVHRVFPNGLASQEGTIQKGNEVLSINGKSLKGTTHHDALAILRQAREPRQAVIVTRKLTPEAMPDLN
# Assay: holdup assay
# Parameters: key: below the threshold = too weak to quantify, mostly under pKd 3.1 to 4
# Settings: plain residues with an end cap or a label only (N-terminal biotin on a linker: ado-ado)
row,Binder,pKd
1,B1,below the threshold
2,B2,below the threshold
3,B3,below the threshold
4,B4,below the threshold

# Molecular target: DLG4_3, P78352
# Sequence (P78352 306-403): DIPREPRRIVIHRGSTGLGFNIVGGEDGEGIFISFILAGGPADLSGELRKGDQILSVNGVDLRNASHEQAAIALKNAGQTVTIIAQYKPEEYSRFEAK
# Assay: holdup assay
# Parameters: key: below the threshold = too weak to quantify, mostly under pKd 3.1 to 4
# Settings: plain residues with an end cap or a label only (N-terminal biotin on a linker: ado-ado)
row,Binder,pKd
1,B1,below the threshold
2,B2,4.61
3,B3,below the threshold
4,B4,below the threshold

# Molecular target: PICK1, Q9NRD5
# Sequence (Q9NRD5 17-115): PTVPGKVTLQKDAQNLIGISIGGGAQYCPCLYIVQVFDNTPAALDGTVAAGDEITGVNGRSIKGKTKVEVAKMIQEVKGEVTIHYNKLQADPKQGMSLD
# Assay: holdup assay
# Parameters: key: below the threshold = too weak to quantify, mostly under pKd 3.1 to 4
# Settings: plain residues with an end cap or a label only (N-terminal biotin on a linker: ado-ado)
row,Binder,pKd
1,B1,below the threshold
2,B2,below the threshold
3,B3,4.06
4,B4,4.03
